Key:
DYT-TOR1A MEF EVs = assay: Quantitative LC-MS/MS proteomics of EVs from drug-treated DYT-TOR1A MEF cultures (ritonavir, salubrinal); assay type: cell-based, mouse; parameters: key to RTV Corrective Direction / RTV Corrective Direction, Grwd1 / RTV Corrective Direction, Srrm2 / RTV Corrective Direction, Rbm17 / RTV Corrective Direction, Dcaf8 / RTV Corrective Direction, Edil3 / RTV Corrective Direction, Timp3 / RTV Corrective Direction, Heatr3 / RTV Corrective Direction, Brd4 / RTV Corrective Direction, P3h4 / RTV Corrective Direction, Pacsin3 / RTV Corrective Direction, Naa50 / RTV Corrective Direction, Lpar6 / RTV Corrective Direction, Ndrg1 / RTV Corrective Direction, Kntc1 / RTV Corrective Direction, Cdk11b / RTV Corrective Direction, Sumo1 / RTV Corrective Direction, Lsm4 / RTV Corrective Direction, Hmga2 / RTV Corrective Direction, Cstf1 / RTV Corrective Direction, Tes / RTV Corrective Direction, Sbno1 / RTV Corrective Direction, Unc119b / RTV Corrective Direction, Cfdp1 / RTV Corrective Direction, Sec61b: YES = protein abundance effect opposite to DYT/WT; conditions: EV protein abundance; for RTV Corrective Direction: DYT + RTV (ritonavir) vs DYT, direction compared with DYT/WT; for DYT + RTV/DYT Cohen's d: ritonavir (RTV)-treated DYT vs DYT
WT MEF EVs = assay: Quantitative LC-MS/MS proteomics of EVs from ISRIB-treated WT MEF cultures; assay type: cell-based, mouse; parameters: key to ISRIB and DYT Parallel Direction / ISRIB and DYT Parallel Direction, Ctdsp1 / ISRIB and DYT Parallel Direction, Pcdh19 / ISRIB and DYT Parallel Direction, Tspan7 / ISRIB and DYT Parallel Direction, Myo1e / ISRIB and DYT Parallel Direction, Plpp3 / ISRIB and DYT Parallel Direction, Sh3bp4 / ISRIB and DYT Parallel Direction, Dnajc7 / ISRIB and DYT Parallel Direction, Drg1 / ISRIB and DYT Parallel Direction, Maea: YES = protein abundance effect similar to DYT/WT; conditions: EV protein abundance; for WT + ISRIB/WT Cohen's d: ISRIB-treated WT vs WT

B1: Fus (protein, UniProt P56959 1-518, looked up)
RNA-binding protein FUS: MASNDYTQQATQSYGAYPTQPGQGYSQQSSQPYGQQSYSGYGQSADTSGYGQSSYGSSYGQTQNTGYGTQSAPQGYGSTGGYGSSQSSQSSYGQQSSYPGYGQQPAPSSTSGSYGGSSQSSSYGQPQSGGYGQQSGYGGQQQSYGQQQSSYNPPQGYGQQNQYNSSSGGGGGGGGGNYGQDQSSMSGGGGGGGYGNQDQSGGGGGGYGGGQQDRGGRGRGGGGGYNRSSGGYEPRGRGGGRGGRGGMGGSDRGGFNKFGGPRDQGSRHDSEQDNSDNNTIFVQGLGENVTIESVADYFKQIGIIKTNKKTGQPMINLYTDRETGKLKGEATVSFDDPPSAKAAIDWFDGKEFSGNPIKVSFATRRADFNRGGGNGRGGRGRGGPMGRGGYGGGGSGGGGRGGFPSGGGGGGGQQRAGDWKCPNPTCENMNFSWRNECNQCKAPKPDGPGGGPGGSHMGGNYGDDRRGRGGYDRGGYRGRGGDRGGFRGGRGGGDRGGFGPGKMDSRGEHRQDRRERPY
RTV Corrective Direction (DYT-TOR1A MEF EVs): YES | DYT + RTV/DYT Cohen's d (DYT-TOR1A MEF EVs): 11.94 | WT + ISRIB/WT Cohen's d (WT MEF EVs): 0.85

B2: Ube2n (protein, UniProt P61089 1-152, looked up)
Ubiquitin-conjugating enzyme …: MAGLPRRIIKETQRLLAEPVPGIKAEPDESNARYFHVVIAGPQDSPFEGGTFKLELFLPEEYPMAAPKVRFMTKIYHPNVDKLGRICLDILKDKWSPALQIRTVLLSIQALLSAPNPDDPLANDVAEQWKTNEAQAIETARAWTRLYAMNNI
RTV Corrective Direction (DYT-TOR1A MEF EVs): YES | DYT + RTV/DYT Cohen's d (DYT-TOR1A MEF EVs): 6.02 | WT + ISRIB/WT Cohen's d (WT MEF EVs): 0.41

B3: Cnn3 (protein, UniProt Q9DAW9 1-330, looked up)
Calponin-3: MTHFNKGPSYGLSAEVKNKIASKYDQQAEEDLRNWIEEVTGLGIGTNFQLGLKDGIILCELINKLQPGSVKKVNESSLNWPQLENIGNFIKAIQAYGMKPHDIFEANDLFENGNMTQVQTTLVALAGLAKTKGFHTTIDIGVKYAEKQTRRFDEGKLKAGQSVIGLQMGTNKCASQAGMTAYGTRRHLYDPKMQTDKPFDQTTISLQMGTNKGASQAGMLAPGTRRDIYDQKLTLQPVDNSTISLQMGTNKVASQKGMSVYGLGRQVYDPKYCAAPTEPVIHNGSQGTGTNGSEISDSDYQAEYPDEYHGEYPDDYPREYQYGDDQGIDY
RTV Corrective Direction (DYT-TOR1A MEF EVs): YES | DYT + RTV/DYT Cohen's d (DYT-TOR1A MEF EVs): 4.78 | WT + ISRIB/WT Cohen's d (WT MEF EVs): 2.76

B4: Vapa (protein, UniProt Q9WV55 2-249, looked up)
Vesicle-associated membrane …: ASASGAMAKHEQILVLDPPSDLKFKGPFTDVVTTNLKLQNPSDRKVCFKVKTTAPRRYCVRPNSGIIDPGSIVTVSVMLQPFDYDPNEKSKHKFMVQTIFAPPNISDMEAVWKEAKPDELMDSKLRCVFEMPNENDKLNDMEPSKAVPLNASKQDGPLPKPHSVSLNDTETRKLMEECKRLQGEMMKLSEENRHLRDEGLRLRKVAHSDKPGSTSAVSFRDNVTSPLPSLLVVIAAIFIGFFLGKFIL
RTV Corrective Direction (DYT-TOR1A MEF EVs): YES | DYT + RTV/DYT Cohen's d (DYT-TOR1A MEF EVs): 1.91 | WT + ISRIB/WT Cohen's d (WT MEF EVs): 3.18

B5: Extl2 (protein, UniProt Q9ES89 1-330, looked up)
Exostosin-like 2: MMRGCHICKLPGRVMGIRVLRFSLVVILVLLLVAGALTNLLPNIKEDKMLTLRREIKSPSKSALDSFTLIMQTYNRTDLLLRLLNHYQAVPSLHKVIVVWNNVGEKGPEELWNSLGPHPIPVIFKPQTANKMRNRLQVFPEVETNAVLMVDDDTLISAQDLVFAFSIWQQFPDQIIGFVPRKHVSTSSGIYSYGGFELQTPGPGNGDQYSMVLIGASFFNSKYLELFQKQPAAVHALIDETQNCDDIAMNFLVTRHTGKPSGIFVKPINMVNLEKETNGYSGMWHRAEHFLQRSYCINKLVNIYDGMPLKYSNIMISQFGFPYANHKSKM
RTV Corrective Direction (DYT-TOR1A MEF EVs): YES | DYT + RTV/DYT Cohen's d (DYT-TOR1A MEF EVs): 0.12 | WT + ISRIB/WT Cohen's d (WT MEF EVs): −1.42 | ISRIB and DYT Parallel Direction (WT MEF EVs; WT + ISRIB vs WT, direction compared with DYT/WT): YES

B6: Uso1 (protein, UniProt Q9Z1Z0 1-959, looked up)
General vesicular transport …: MNFLRGVMGGQSAGPQHTEAETIQKLCDRVASSTLLDDRRNAVRALKSLSKKYRLEVGIQAMEHLIHVLQTDRSDSEIIAYALDTLYNIISNDEEEELEENSTRQSEDLGSQFTEIFIKQPENVTLLLSLLEEFDFHVRWPGVRLLTSLLKQLGPPVQQIILVSPMGVSRLMDLLADSREIIRNDGVLLLQALTRSNGAIQKIVAFENAFERLLDIITEEGNSDGGIVVEDCLILLQNLLKTNNSNQNFFKEGSYIQRMKPWFEVGEENSGWSAQKVTNLHLMLQLVRVLVSPTNPPGATSSCQKAMFQCGLLQQLCTILMATGIPADILTETINTVSEVIRGCQVNQDYFASVNAPSNPPRPAIVVLLMSMVNERQPFVLRCAVLYCFQCFLYKNEKGQGEIVATLLPSTIDATGNSVSAGQLLCGGLFSTDSLSNWCAAVALAHALQGNATQKEQLLRVQLATSIGNPPVSLLQQCTNILSQGSKIQTRVGLLMLLCTWLSNCPIAVTHFLHNSANVPFLTGQIAENLGEEEQLVQGLCALLLGISIYFNDNSLENYTKEKLKQLIEKRIGKENFIEKLGFISKHELYSRASQKPQPNFPSPEYMIFDHEFTKLVKELEGVITKAIYKSSEEDKKEEEVKKTLEQHDNIVTHYKNMIREQDLQLEELKQQVSTLKCQNEQLQTAVTQQASQIQQHKDQYNLLKVQLGKDNHHQGSHGDGAQVNGIQPEEISRLREEIEELKSQQALLQGQLAEKDSLIENLKSSQASGMSEQASATCPPRDPEQVAELKQELTALKSQLCSQSLEITRLQTENCELLQRAETLAKSVPVEGESEHVSAAKTTDVEGRLSALLQETKELKNEIKALSEERTAIQKQLDSSNSTIAILQTEKDKLDLEVTDSKKEQDDLLVLLADQDQKILSLKSKLKDLGHPVEEEDESGDQEDDDDEIDDGDKDQDI
RTV Corrective Direction (DYT-TOR1A MEF EVs): YES | DYT + RTV/DYT Cohen's d (DYT-TOR1A MEF EVs): 9.12 | WT + ISRIB/WT Cohen's d (WT MEF EVs): 2.44

B7: Nap1l4 (protein, UniProt Q78ZA7 2-375, looked up)
Nucleosome assembly protein …: AENSLSDGGPADSVEAAKNASNTEKLTDQVMQNPQVLAALQERLDNVSHTPSSYIETLPKAVKRRINALKQLQVRCAHIEAKFYEEVHDLERKYAALYQPLFDKRREFITGDVEPTDAESAWHSENEEEDKLAGDMKNKVVIAEKEAATVEELNPKGIPEFWFTIFRNVDMLSELVQEYDEPILKHLQDIKVKFSDPGQPMSFVLEFHFEPNDYFTNPVLTKTYKMKSEPDKADPFSFEGPEIVDCDGCTIDWKKGKNVTVKTIKKKQKHKGRGTVRTITKQVPNESFFNFFSPLKASGDGESLDEDSEFTLASDFEIGHFFRERIVPRAVLYFTGEAIEDDDNFEEGEEGEEEELEGDEEGEDEDDADVNPKV
RTV Corrective Direction (DYT-TOR1A MEF EVs): YES | DYT + RTV/DYT Cohen's d (DYT-TOR1A MEF EVs): 5.74 | WT + ISRIB/WT Cohen's d (WT MEF EVs): 2.43

B8: Hnrnph1 (protein, UniProt O35737 1-449, looked up)
Heterogeneous nuclear …: MMLGAEGGEGFVVKVRGLPWSCSADEVQRFFSDCKIQNGAQGIRFIYTREGRPSGEAFVELESEDEVKLALKKDRETMGHRYVEVFKSNNVEMDWVLKHTGPNSPDTANDGFVRLRGLPFGCSKEEIVQFFSGLEIVPNGITLPVDFQGRSTGEAFVQFASQEIAEKALKKHKERIGHRYIEIFKSSRAEVRTHYDPPRKLMAMQRPGPYDRPGAGRGYNSIGRGAGFERMRRGAYGGGYGGYDDYNGYNDGYGFGSDRFGRDLNYCFSGMSDHRYGDGGSTFQSTTGHCVHMRGLPYRATENDIYNFFSPLNPVRVHIEIGPDGRVTGEADVEFATHEDAVAAMSKDKANMQHRYVELFLNSTAGASGGAYEHRYVELFLNSTAGASGGAYGSQMMGGMGLSNQSSYGGPASQQLSGGYGGGYGGQSSMSGYDQVLQENSSDFQSNIA
RTV Corrective Direction (DYT-TOR1A MEF EVs): YES | DYT + RTV/DYT Cohen's d (DYT-TOR1A MEF EVs): 4.23 | WT + ISRIB/WT Cohen's d (WT MEF EVs): 2.47

B9: Cxadr (protein, UniProt P97792 20-365, looked up)
Coxsackievirus and adenovirus …: LSITTPEQRIEKAKGETAYLPCKFTLSPEDQGPLDIEWLISPSDNQIVDQVIILYSGDKIYDNYYPDLKGRVHFTSNDVKSGDASINVTNLQLSDIGTYQCKVKKAPGVANKKFLLTVLVKPSGTRCFVDGSEEIGNDFKLKCEPKEGSLPLQFEWQKLSDSQTMPTPWLAEMTSPVISVKNASSEYSGTYSCTVQNRVGSDQCMLRLDVVPPSNRAGTIAGAVIGTLLALVLIGAILFCCHRKRREEKYEKEVHHDIREDVPPPKSRTSTARSYIGSNHSSLGSMSPSNMEGYSKTQYNQVPSEDFERAPQSPTLAPAKVAAPNLSRMGAVPVMIPAQSKDGSIV
RTV Corrective Direction (DYT-TOR1A MEF EVs): YES | DYT + RTV/DYT Cohen's d (DYT-TOR1A MEF EVs): 3.88 | WT + ISRIB/WT Cohen's d (WT MEF EVs): 1.72

B10: Impa1 (protein, UniProt O55023 1-277, looked up)
Inositol monophosphatase 1: MADPWQECMDYAVILARQAGEMIREALKNEMDVMIKSSPADLVTVTDQKVEKMLMSSIKEKYPCHSFIGEESVAAGEKTVFTESPTWFIDPIDGTTNFVHRFPFVAVSIGFLVNKEMEFGIVYSCVEDKMYTGRKGKGAFCNGQKLQVSQQEDITKSLLVTELGSSRKPETLRIVLSNMEKLCSIPIHGIRSVGTAAVNMCLVATGGADAYYEMGIHCWDMAGAGIIVTEAGGVLMDVTGGPFDLMSRRIIAANSITLAKRIAKEIEIIPLQRDDES
RTV Corrective Direction (DYT-TOR1A MEF EVs): YES | DYT + RTV/DYT Cohen's d (DYT-TOR1A MEF EVs): 10.89 | WT + ISRIB/WT Cohen's d (WT MEF EVs): 1.73
